Assay results published in the nanobody polyreactivity screen of Harvey et al. (2022).

Assay: yeast display, Sf9 membrane polyspecificity reagent, FACS + sequencing; frameworks hold sequencing errors
In short: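 In a synthetic yeast display library (Saccharomyces cerevisiae BJ5465), nanobody expression was induced with galactose for 36–48 hours. FACS gates were set low and high (top ~1%) using anti-HA fluorescence for expression and streptavidin fluorescence for binding of the Sf9 membrane reagent. Each polyreactivity label is drawn from the gate of origin.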

| Sequence | polyreactivity (PSR sort gate) |
| --- | --- |
| QVQIVESGGGLVQAGGSLRLSCAASGFTFALYAMGWYRQEPGKEREWVAANTRSGRTKYADSVKGRFTISRDNAKNTVYLQMNSLKPEDTAVYYCAADFRYYVTTRFNYWGQGTQVTVSS | high polyreactivity |
| QVQLVESGGGLVQAGGSLRLSCAASGRTLEHNAMGWYRQAPGKERELVAAITDGGASTYYADSVKGRFTISRENAKNTVYLQMNSLKPEDTAVYYFAADTYPTTSEFDYWGQGTQVTVSS | low polyreactivity |
| QVQLVESGGGLVQAGGSLRLSCAASGFTLNGYAMGWYRQAPGKERELVAAISSSGGRTYYADSVKGRFTISRDNAKNTVYLQMNCLKPEDTAVYYCAAVVYYEDGYWGQGTQVTVSS | low polyreactivity |
| QVQLVESGGVLVQAGGSLRLSCAASGSIFVPYAMGWYRQAPGKERELVAAISSGGSTNYADSVKGRFTISRDNAKNTVYLLMNSLKPEDTAVYYCAADRKYFYLWLDQEHRYYWGQGYQVTVSS | low polyreactivity |
| QVQLEESGGGLVQAGGRLRLSCAASGRTFSTYAMGWYRQATGKERELVAAITRRGGSTSYADSVKGRFTISRDNANNTVYLQMNSLNPEDTAVYYCARENPGDSYYDYWGQGTQVTVSS | low polyreactivity |
| QFQLVESGGGLVQAGGSLRLSCAASGFTITFYAKGWYRQAPGKERELVAAIRTSDGRTYYADSVKGRFTISRDNAKNTVYLQMNSLKPEDTAVYYCAAQVYRPRARYYEYDYWGQGTQVTVSS | high polyreactivity |
| QVQLQESGGGLLQAGGSLRLSCAASGIIFDNPNKGWYRQAPGKERDLVATINSGATTNYADSVKGRFTISRDNAKNTVYLQMNSLIPVDTAVYYCAVDLSPTYFYYWGQGTQVTVSS | high polyreactivity |
| QVQLLESGGGLVQAGGSLRLSCAASGRIFVRNAMGWYRQAPGKERELVAAITSSGGRTYYADSVKGRFTISRDNAKNTVYLQMNSLKPEDTAVYYCNADDFGYASYEYWGQGSQVTVSS | low polyreactivity |
| QVQLVESGGGLVQAGGSLRLICAASGRTFRYNAMGWYSQPHRKERELFAAINGGGSTYYADTVKGRFTISRDNAKNTVFLQMKSLKPEDTAVYYCAAANWRRNDYRYRFDYWGQGTQVTVSS | high polyreactivity |
| QVQLVESGGGLVQAGGSLRLSCAASGFTFTGYAMGWYRQAPGKERELVAVISSRGGSTYYADSVKGRFTISRDNAKNTVYLQMNSLKPEDTAVYYCAARGSKGFSSPFGYWGQGTQVTVSS | high polyreactivity |
| QVQLVESGGGLVQAGGSLRLSCAASGLTFSTYAMGWYRQAPGKERELVAVIRRTGSTYYADSVKGRFTISRDNAKNTVYLQMNSLKPEDTAVYYCATARRHVSGYDYWGQGTQVTVSS | high polyreactivity |
| QVQLEESGGGLVQAGGSHRLSCAASGFTFIDNAMGSYRQAPGKERELVAAISISGGRTYYADSVKGRFTISRDNAKNTVYLQMNSLKPEDTAVYYCAAGKHRRDDYWGQGTQVTVSS | high polyreactivity |
| QVQLEESGGGLVQAGGSLRLSCAASGISFDTYAMGRNRPAPGKERELVAAMSSSGSTNYADSVKGRFTISRDNAKKTVYLQMNSLKPEDTADYYCATDYWPGTGGTYDYWGQGTQVTVSS | low polyreactivity |
| QVQHVESGGGLVQAGGSLRLSCAASGRTFGQNAMGWYRQAPGKERELVASIRSGGITDYADSVKGRFTISRDNAKNTVYLHMNSLKPEDTAVYYCNAEGVWWSTRYDSWGQGTQVTVSA | low polyreactivity |
| QVQLVESGGGLVQAGGSLRLSCAASGGIFDYYAMGWYRQAPGKERELVAAIRGGGSTNYADSVKGRFTISRDNAKNTVYLQMNSLKPEDTAVYYCAKRAGPEYDYWGQGTQVTVSS | low polyreactivity |
| QVQLVESGGGLVQAGGSLRLSCAASGGIFEYYAMGWYRQAPGKERELVAAINTGGNTYYADSVKGRFTISRDNAKNTVYLQMNSLKPEDTAVYYCATDPIWYGGYLSGTDYDYWGQGTQVTVSS | low polyreactivity |
| QVQLVESGGGLVQAGGSLRLSCAASGRNYGNAMGWYRQAPGKERELVAAISAGGGRTYYADSVKGRFTISRDNAKNTVYLQMNSLKPEDTAVYYCAADTTLQAFIRYRPIGSYDSWGQGTQVTVSS | low polyreactivity |
| QVQHVESGGGLLQPGGSLRLSCAASGSTFRTNAMGWYRQAPGKERELVAAISRSTGSTYYADSVKGRFTISRDNAKNTVYLQMNSLKTVDSAVFYCNALSGFWGQGTQVTVSS | low polyreactivity |
| QVQLVESAGGLVQAGGSLRLSCAASGRIFVYYAMGGYRKAPGKERELVAAISDSDDSSYYADSVKGRFTISRDNAKNTVYLQMNSLKPEDTAVYYCAAEGDIGGDDYYWGQGTQLTVSS | high polyreactivity |
| QVQLVESGGGLVQAGGSLRLSCAASGRTFYLYTKGWYRQAPGKERELVAAISRGGRTYADSVKGRFTISRDNAKNTVYLQMNSLKPEDTAVDYCNRELTSPRRWHVSRAYDYWGQGTQVTVSS | low polyreactivity |
| QVQLLESGGGLVQAGGSLRLSCAASGRIFSFYTMGWYRQAPGKERELVAAITWRGGSTYYADSVKGRFTISRDNAKNTVYLQMNSLKPEDTAVYYCAAEVYGAVYDYWGQGTQVTVSS | low polyreactivity |
| QVQLVESGGGLVQAGGSLRLSCAASGIIFSIYAMGLYRQAPGKERELVAVISRSSGSTYYADSVKGRFTISRYNAKNTVYLQMNSLKPEDTAVYYCAARKNRAYGYWGQGTQVTVSS | high polyreactivity |

| Sequence | polyreactivity (PSR sort gate) |
| --- | --- |
| QVQLVESGGGLVQAGGSLRLSCAASGGTFRYYALGWYRQAPGKERALVAAISSGGSTNYADSVKGRFTISRDNAKNTVYLQMNSLKPEDTAVYYCAADVIYYYAYYTYDYWGQGTQVTVSS | low polyreactivity |
| QVQLVESGGGLVPAGGSLRLSCAASGSIFVGYAMGWYRQAPGKERELVADITVGGGSTFYADSVKGRFTISRDNAKNTVYLQMTSLKPEDTAVYYCAKYAGVYEYDYWGQGTQVTVSS | low polyreactivity |
| QLQLVESGAGLVKAGGSLRISSAASGYTFGRNTMGCYRQAPGKERELVAAITRRGGSTNYADSVKGRFTISRDNAKNTVYLQMNSLKQEDTAVYYCARDYRSYTGSYDSSYDYWGQGTQVTVSS | high polyreactivity |
| QVQLVESGGGLVQAGGRLRLSCAASGRTFDTNAMGWYRQAPGKQRELVAVITARGGNTSYADSVKGRFTISRDYAKNTVYLLMNRLKPEDTAVYLCAARVYRAPWTYVEGNYWGQGTQVTVSS | low polyreactivity |
| QVQLVESGGGLVQAGGSLRLSCAASGGIFYDNAMGWYRQARGKEWELVAAINWSGGSTYYADSVKGRFTISRDNAKNTVYLQMNSLKPDDTAVYYCAASRYFYRTYWNFYGMDYSGQGTQVTVSS | high polyreactivity |
| QVQLVESGGGLVQAGGSLRLSCAASGSIFVDNAMGWYRQAPGTERELVAAINWSGGSTYYADSVKGRFTISRDNAKNTVYLQMNSLKPEDTAVYYCIAARPGQTWDEQSWYDYWGQGTQVTVSS | low polyreactivity |
| QVQLVESGGGLVQAGGSLRLSCAASGSIYPGNAMGWYRQAPGKERELVAVIDFSGASTYYADSVKGRFTISRDNAKNTVYLQMNSLKPEDTADYWGQGTQVTVSS | low polyreactivity |
| QVKLVESGGGLVQAGGSLRLSCAASGSTFHLNAMGWYRPAPGKDRELVAANSWDGSSTSYADSVKGRFTISRDNAKNTVYLQMNSLKPEDTAVYFCAADDTLDRVPTTFIDGSPGYGYWGQGTQVTVSS | low polyreactivity |
| QVQLVESGGGLVQAGGSLRLSCAASGFTFADYAMGWYRQAPGKERELVAAINRSGGRTYYADSVKGRFTISRDNAKNTVYLQMNSLKPEDTAVYYCAAYGITYHNYDYWGQGTQVTVSS | high polyreactivity |
| QVHLVESGGGLVQAGGILRLSCSASGRIFSVNAMGWYRQSPGKERELVAAITTRGGTTYYADSVKGRFTISRDNAKNTVYLLMNSLKPEDTAVYYCAAESSWYVYWEWAHDYWGQGTQVTVSS | low polyreactivity |
| QVQLVESGGGLVQAGGSLRLSCAASGFTFKSNAMGWYRQAPGKERELVAAISGSGGRTYYADSVKGRYTISRDTAKYTVYLQMNSLKPEDTAVYYCAADYPVRSYDYWGQGTQVTVSS | low polyreactivity |
| QVQLVESGGGLVQAGGSLRLSCAASGFILYRNAMGWYRQAPGKERELVAAISRNGGSTYYADSVKGRFTISRDNAKNTFYLQMNSLKPEDTAVYYCAARTVGRKAGFDYWGQGTQVTVSS | high polyreactivity |
| QVQLVESGGCLVQAGGSLRLSCAASGRTFYGNDMGWYSQAPGTERELVAAISSSGGSTYYADSVKGRGTISRDNGKNTVYLQMKSLKPEDTAVYYCNAYWRGFRLSYYEDSYYWGQGTQVTVSS | high polyreactivity |
| QVQLVESGGGLVQAGGSLRLSCAASGSTFYPYFMGWYRQAPAKEREFVAAISKSGGSTYYADSVKGRFTISRDNAKNTVYLQMNSLKPEDTAVYYCNKKVGSYYRSYYYWGQGTQVTVSS | high polyreactivity |
| QVQLVESGGGLVQAGGSLPLSCAASGRTYVSYVMGRYRQAPGKEREFVAAISRSGGNTYYADSVKGRFTISRDTAKNTVYLQMNSLNPEDTAVYYCYVLLQRVYGTAPSFDYWGQGTQVTVSS | high polyreactivity |
| QVQLVESGGGLVQAGGSLRLSGASYGFIFVWYAMGWYRQAPGKEREFVAAITSLGGSTYYADSVKGRFTISRDNEKNSVYLHMYSLNPEDTADYYCNAEFFYRGSGYDSWGQGTQVTVSS | high polyreactivity |
| QVQLVESGGGLFQAGGSLRLSCAASGRIFHGYDMGWYRQAPGKERELVAAITWRGGSTYADSVKGRFTISRDNGKNTVYLQMNSLKPEDTAVYYCAADTVYYGYFFYYWGQVTQVTVSS | high polyreactivity |
| QVQLVESGGGLVQAGGSLRLSCAASGRIIGYYAMGWYRQAPGKERELVAGIDWSGGNTYYADSVKGRFTISRDNAKNTVYLQMNSLKPEDTAVYYCNTEGGRDTAWYDYWGQGTQVTVSS | low polyreactivity |
| QVQLVESGAGLVQAGRSLRLSCAASGRTLSRFAMGGYRQAPGKERELVAGITSGGDTRTYYADSVKGRFTISRDYAKNTVYLQMNSLKPEDPAVYYCWGQVTQVTVSS | low polyreactivity |
| QVQLVESGGGLVQAGGSLRLSCAASGSTFQWNAMGWYRQAPGKERELVAAISKSGGRTYYADSVKGRFTISRDNAKNTVYLQMNSLKPEDTAVYYCNALGSLDGRYGYWGQGTQVTVSS | high polyreactivity |
| QVQLVESWGGLVQAGGSLRLSCAASGGIFWNYAMGWYRQAPGKERELVATISSGGSTKYADSVKGRFTISRDNAKNTVYLQMNSLKPEDTAVYYCNKVFPNLYIYVVRGLIEMDYWGQGTQVTVSS | low polyreactivity |
